From article PMC6884526 (2019)

Biological target: MBP-TrkB-454-821 (Rattus norvegicus (Rat), UniProt Q63604)
Test: pull-down (MBP-TrkB on amylose resin, GST-ActI-SIPA1L2 prey, immunoblot)

Sequence of MBP-TrkB-454-821 (Q63604 454-821): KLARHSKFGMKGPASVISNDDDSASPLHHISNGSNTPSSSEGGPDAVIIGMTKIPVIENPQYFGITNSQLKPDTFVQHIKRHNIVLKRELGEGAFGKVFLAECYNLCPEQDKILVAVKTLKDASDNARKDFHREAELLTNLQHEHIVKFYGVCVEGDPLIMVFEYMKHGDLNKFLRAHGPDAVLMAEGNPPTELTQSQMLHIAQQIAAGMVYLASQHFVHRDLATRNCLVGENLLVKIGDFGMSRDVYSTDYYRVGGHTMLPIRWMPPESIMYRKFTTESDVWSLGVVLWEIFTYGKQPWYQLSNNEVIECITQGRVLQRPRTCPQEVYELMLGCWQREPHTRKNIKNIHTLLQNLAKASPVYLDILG

B1: GST-ActI-SIPA1L2-1-624 (protein)
chain: MSDPRPSQAEKHKLGRAASKFKDPSRAMQSDDYFARKFKAINGSMGPATLNTSSLSEGGGGGGGPANGTPAVPKMGVRARVSEWPPKKDCSKDLACKTLWESRSQSSYESATSIIQNGQNDQVDRQQEEQLDLDFVEAKYTIGDIFVHSPQRGLHPIRQRSNSDITISDIDTEDVLDQHAVNPNTGAALHREYGSTSSIDRQGLSGENVFAMLRGYRIESYDPKVTSSFGFPDFFPCDTAISPSLHAAAQISRGEFVRISGLDYMDGGLLMGRDRDKPFKRRLKSESVETSLFRKLRTVKSEHETFKFTSDLEEGRLDRGIRPWSCQRCFAHYDVQSILFNINEAMATRASVGKRKNITTGASAASQTPVPVGPAGGCESPLGSKEDLNAKENPDADEGDGKSNDLVLSCPYFRNETGGEGDRRIALSRANSASFSSGESCSFESSLSSHCTNAGVSVLEVPRENQPIHREKVKRYIIEHVDLGAYYYRKFFYGKEHQNYFGIDENLGPVAVSIRREKVEDPREKEGSQFNYRVAFRTSELTTLRGAILEDAVPSTARHGTARGLPLKEVLEYVIPELSIPCLRQAANSPKVPEQLLKLDEQGLSFQHKIGILYCKAGQSTEEE
B1: binds.
